Experimental data: the RNAGym collection of RNA variant scans (doi:10.1073/pnas.2313332121)

B1: TPR t1 (parent)
chain: GACCAAUCUGCCCUCAGAGCUCGAGAACAUCUUCGGAUGCAGAGGAGGCAGGCUUCGGUGGCGCGAUAGCGCCAACGUCCUCAACCUCCAAUGCAUCCCACCACAUGAUGAUGCCUGAAGAGCCUUGGUUUUUUG

Variants of: B1
Assay: polymerase ribozyme fitness, log enrichment relative to wild type (log ratio); higher = more active; in vitro selection for triplet polymerase activity
Procedure, shortened: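 Each subunit of a heterodimeric triplet polymerase ribozyme was represented by a PCR-built, transcribed mutant library that underwent triplicate single-round in vitro selection with frozen incubation at −7 °C. Extended constructs were recovered by gel excision, streptavidin-bead capture and RT-PCR, and Illumina sequencing of input and output libraries kept genotypes with ≥10 input reads and ≥1 read per output. Fitness is the logarithm of genotype enrichment relative to wild-type enrichment, from inverse-variance-weighted replicate averages, with a logarithm base of 2.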

Variant | polymerase ribozyme fitness (log ratio)
GACCAAUCUGCCCUCAGAGCUCGAGAACAUCUUCGGAUGCAGAGGAGGCAGGCUUCGGGGGCGCGAUAGCGCCGACGUCCUCAACCUCCAAUGCAUCCCACCACAUGAUGAUGCCUGAAGAGCCUUGGUUUUUUG [U59G A74G] | -0.396
GACCAAUCUGCCCUCAGAGCUCGAGAACAUCUUCGGAUGCAGAGGAGGCAGGCUUCGGCGGCGCGAUAGCGCCAACGUCCUCAACCUCCAAUGCAUCCCACCACAGGAUGAUGCCUGAAGAGCCUUGGUUUUUUG [U59C U106G] | -1.74
GACCAAUCUGCCCUCAGAGCUCGAGAACAUCUUCGGAUGCAGAGGAGGCAGGCUUCGGUAGCGAGAUAGCGCCAACGUCUUCAACCUCCAAUGCAUACCACCACAUGAUGAUGCAUGAAGAGCCAGGGUUUUUUG [G60A C64A C80U C97A C115A U125A U126G] | -7.2
GACCAAUCUGCCCUCAGAGCUCGAGAACAUCUUCGGAUGCAGAGGAGGCAGGCUUCGGUAGCGCGAUAGCGCCAACGUCCUCAACCUCCACUGCAUCCCACCACAUGAUGAUGCCUGAAGAGCCUUGGUUUUUUG [G60A A91C] | -1.35
GACCAAUCUGCCCUCAGAGCUCGAGAACAUCUUCGGAUGCAGAGGAGGCAGGCUUCGGGGGCGCGAUAGCGCCAACGUCCUCAACCUCCGAUGCAUUCCACCACAUGAUGCUGCCUGAAGAGCCUUGGUUUUUUG [U59G A90G C97U A111C] | 0.601
GACCAAUCUGCCCUCAGAGCUCGAGAACAUCUUCGGAUGCAGAGGAGGCAGGCUUCGGGGGCGCGAUAGCGCCAACGUCCUCAACCUCCAAUGCAUCCCACAACAUGAUGAUGCCUGAAGAGCCUUGGUUUUUUG [U59G C102A] | -1.41
GACCAAUCUGCCCUCAGAGCUCGAGAACAUCUUCGGAUGCAGAGGAGGCAGGCUUCGGUAGCGCGAUAGCGCAAACGUCCUCAACCUCCAAUGCAUCCCACCACAUGAUGAUGCCUGAAGAGCCUUGGUUUUUUG [G60A C73A] | -0.416
GACCAAUCUGCCCUCAGAGCUCGAGAACAUCUUCGGAUGCAGAGGAGGCAGGCUUCGGUAGCGCGAUAGCGCCAACGUCCUCAACCUCAAAUGCAUCCCACCACAUGAUGAUGCCUGAAGAGCCUUGGUUUUUUG [G60A C89A] | -1.99
GACCAAUCUGCCCUCAGAGCUCGAGAACAUCUUCGGAUGCAGAGGAGGCAGGCUUCGGCGGCGCGAUAGCGCCAACGUCCUCAACCUCCAAUGCAUCCCACCACAUGAUGAUGCCUGAAGAGCCUUGGUCUUUUG [U59C U130C] | -0.123
GACCAAUCUGCCCUCAGAGCUCGAGAACAUCUUCGGAUGCAGAGGAGGCAGGCUUCGGUAGCGCGAUAGCGCCAACGUCCUCAACCUUCAAUGCAUCCCACCACAUGAUGAUGCCUGGAGAGCCUUGGUUUUUUG [G60A C88U A118G] | -1.01
GACCAAUCUGCCCUCAGAGCUCGAGAACAUCUUCGGAUGCAGAGGAGGCAGGCUUCGGCGGCGCGAUAGCGCCAACGUCCUCAACCUCCAAUGCAUCCCACCACAUGAUGACGCCUGAAGAGCCUUGGUUUUUUG [U59C U112C] | 1.98
GACCAAUCUGCCCUCAGAGCUCGAGAACAUCUUCGGAUGCAGAGGAGGCAGGCUUCGGUAGCGCGAUAGCGCCAACGUCCUCAACCUCCAAUGCAUCCCACCACAUGAUGAUGCUUGAAGAGCCUUGGUUUUUUG [G60A C115U] | -1.41
GACCAAUCUGCCCUCAGAGCUCGAGAACAUCUUCGGAUGCAGAGGAGGCAGGCUUCGGUAGCGCGAUAGCGCCAACGUUCUCAACCUCCAAUGCAUCCCACCACAUGAUGAUGCCUGAAGAGCCUUGGUCUUUUG [G60A C79U U130C] | 0.829
GACCAAUCUGCCCUCAGAGCUCGAGAACAUCUUCGGAUGCAGAGGAGGCAGGCUUCGGUAGCGCGAUAGCGCCAACGUCCUUAAGCUCCAAUGCAUCCCACCACAUGAUGAUGCCUGAAGAGCCUUGGAUUUUUG [G60A C82U C85G U129A] | -3
GACCAAUCUGCCCUCAGAGCUCGAGAACAUCUUCGGAUGCAGAGGAGGCAGGCUUCGGGGGCGCGAUAGCGCCAACGUCCUCAACCUCCAAUGCAGCCCACCACAUGAUGCUGCCUGAAGAGCCUUGGUUAUAUG [U59G U96G A111C U131A U133A] | -1.54
GACCAAUCUGCCCUCAGAGCUCGAGAACAUCUUCGGAUGCAGAGGAGGCAGGCUUCGGUAGCGCGAUAGCGCCAACGUCCUUAACCUCCAAUGCAUCCCACCACAUGAGGAUGCCUGAAGAGCCUUGGUUUUUUG [G60A C82U U109G] | -5.13
GACCAAUCUGCCCUCAGAGCUCGAGAACAUCUUCGGAUGCAGAGGAGGCAGGCUUCGGGGUCGCGAUAGCGCCAACGUCCUCAACCUCCAAUGCAUCCCACCACAUGAUGAUGCCUGUAGAGCCUUGGUUUUUUG [U59G G61U A118U] | -0.0772
GACCAAUCUGCCCUCAGAGCUCGAGAACAUCUUCGGAUGCAGAGGAGGCAGGCUUCGGUAGCGCGAUAGCGCCAACGUCCUCAACCUCAAAUGCAUCCCACCACUUGAUGAUGUCUGAAGAGCCUUGGUUUUUUG [G60A C89A A105U C114U] | -6.37
GACCAAUCUGCCCUCAGAGCUCGAGAACAUCUUCGGAUGCAGAGGAGGCAGGCUUCGGUAGCGCGAUAGCGCCAACGUCCUCAACCUCCAAUGAAUCCCACCACAUGAUGAUGCCUGAAGAGCCUUGGUUUUUUG [G60A C94A] | -2.04
GACCAAUCUGCCCUCAGAGCUCGAGAACAUCUUCGGAUGCAGAGGAGGCAGGCUUCGGGGGCGCGAUAGCGCCAACGUCCUCAACCUCCAAUGCAUCCCACCACAUGAUUAUGCCUGAAGAGCCUUGGUUUUUUU [U59G G110U G135U] | -2.85
GACCAAUCUGCCCUCAGAGCUCGAGAACAUCUUCGGAUGCAGAGGAGGCAGGCUUCGGUAGCGCGAUAGCGCCAACGUCCUCAACCUUCAAUGCAUCCCACCACAUGAUGAUGCCUGAAGAACCUUGGUUUUUUG [G60A C88U G122A] | -2.19

Variant | polymerase ribozyme fitness (log ratio)
GACCAAUCUGCCCUCAGAGCUCGAGAACAUCUUCGGAUGCAGAGGAGGCAGGCUUCGGGGGCGCGAUAGCGCCAACGUCCUCAACCUGCAAUGCAUCCCACCACAUGAUGAUGCCUGAAGAGCCUUGGUUUUUUG [U59G C88G] | -2.09
GACCAAUCUGCCCUCAGAGCUCGAGAACAUCUUCGGAUGCAGAGGAGGCAGGCUUCGGUAGCGCGAUAGCGCCAACGUCCUCAACCUCCUAUGCAUCCCACCACAUGAUGAUGCCUGAAGAGCCUUGGUUUUUUG [G60A A90U] | -1.06
GACCAAUCUGCCCUCAGAGCUCGAGAACAUCUUCGGAUGCAGAGGAGGCAGGCUUCGGUAGCGAGAUAGCGCCAACGUCCUCAACCUCCAAUGCAUCCCACCACAUGAUGACGCCUGAAGAGCCUUGGUUUUUUG [G60A C64A U112C] | -6.76
GACCAAUCUGCCCUCAGAGCUCGAGAACAUCUUCGGAUGCAGAGGAGGCAGGCUUCGGUAGCGCGAUAGCGCCAACGUCCUCAACCUCCAAUGCAUCCUACCACAUGAUUAUGCCUGAAGAGCCUUGGUAUUUUG [G60A C99U G110U U130A] | -5.82
GACCAAUCUGCCCUCAGAGCUCGAGAACAUCUUCGGAUGCAGAGGAGGCAGGCUUCGGGGGCGCGAUAGCGCCAACGUCCUCAACCUCCAAUGCAUCCCACCACAUGAGGAUGCCUGAAUAGCCUUGGUUUUUUG [U59G U109G G120U] | -4.53
GACCAAUCUGCCCUCAGAGCUCGAGAACAUCUUCGGAUGCAGAGGAGGCAGGCUUCGGUAGCGCGAUAGCGCCAACGUCCUCAACCUCCAAUGCAUCCCACCAAAUGAUGAUUCCUGAAGAGCCUUGGUUUUUUG [G60A C104A G113U] | -5.38
GACCAAUCUGCCCUCAGAGCUCGAGAACAUCUUCGGAUGCAGAGGAGGCAGGCUUCGGUAGCGCGAUAGCGCCAACGUCCUCAACCUCCAAUGCAUCCCAACACAAGAUGAUGCCUGAUGAGUCUUGGUUUUUUG [G60A C101A U106A A119U C123U] | -4.23
GACCAAUCUGCCCUCAGAGCUCGAGAACAUCUUCGGAUGCAGAGGAGGCAGGCUUCGGUAGCGCGAUAGCGCCAACGUUCUCAACCUCCAAUGCAUCCCACCACAUGAUGAUGCCUGAAGAGCCUUGGUUUUUUG [G60A C79U] | 0.344
GACCAAUCUGCCCUCAGAGCUCGAGAACAUCUUCGGAUGCAGAGGAGGCAGGCUUCGGGGGCGCGAUAGCGCCAACGUCCUCAACUUCCAAUGCUUCCCACCACAUGAUGAUGCAUGAAGAGUCUUGGUUUUUUG [U59G C86U A95U C115A C123U] | -2.76
GACCAAUCUGCCCUCAGAGCUCGAGAACAUCUUCGGAUGCAGAGGAGGCAGGCUUCGGCGGCGCGAUAGCGCCAACGUCCUCAACCACCAAUGCAUCCCACCACAUGAUGACGCCUGAAGAGCCUUGGUUUUUUG [U59C U87A U112C] | 0.815
GACCAAUCUGCCCUCAGAGCUCGAGAACAUCUUCGGAUGCAGAGGAGGCAGGCUUCGGUAGCGCGAUAGCGCCAACGUCCUCAACCUCCAAUGCAUCCCACCACAUGAUGAUGACUGAAGGGCCUUGGUUUUUUG [G60A C114A A121G] | -0.404
GACCAAUCUGCCCUCAGAGCUCGAGAACAUCUUCGGAUGCAGAGGAGGCAGGCUUCGGUAGCGCGAUAGCGCCAACGUCCUCAACCUCCAAUGCAUCCCACCACAUGAUGAUGCCUGAAGAGACUUGGUUUUUUG [G60A C123A] | 0.222
GACCAAUCUGCCCUCAGAGCUCGAGAACAUCUUCGGAUGCAGAGGAGGCAGGCUUCGGUAGCGCGAUAGCGCCAACGUCCUCAACCUCCAAUGCAUCACACCACAUGAUGAUGCCUGAAGAGCCUUGGUUUUUUG [G60A C98A] | -4.29
GACCAAUCUGCCCUCAGAGCUCGAGAACAUCUUCGGAUGCAGAGGAGGCAGGCUUCGGUAGCGCGAUAGCGCCAACGUCCUCAACCUCCAAUGCAUCGCACCACAUGAUGAUGCCUGAAGAGCCUUGGUUUUUUG [G60A C98G] | -7.02
GACCAAUCUGCCCUCAGAGCUCGAGAACAUCUUCGGAUGCAGAGGAGGCAGGCUUCGGUAGCGCGAUAGCGCCAACGUCCUCAACUUCCAAUGCAUCCCACCACAUGAUGAUGCCUGAAGAGCCUUGGUUUUUUG [G60A C86U] | -0.149
GACCAAUCUGCCCUCAGAGCUCGAGAACAUCUUCGGAUGCAGAGGAGGCAGGCUUCGGUAGCGCGAUAGCGCCAACGUCCUCAACCUCCGAUGCACCCCAGCACAUGAUGAUGCCUGAAGAGCCUUGGUUUUUUG [G60A A90G U96C C101G] | -1.58
GACCAAUCUGCCCUCAGAGCUCGAGAACAUCUUCGGAUGCAGAGGAGGCAGGCUUCGGGGGCUCGAUAGCGCCAACGUCCUCAACCUCCAAUGCAUCCCACCACAUGAUGAUGCCUGAAGAGCCUUGGCUUUUUG [U59G G63U U129C] | -2.43
GACCAAUCUGCCCUCAGAGCUCGAGAACAUCUUCGGAUGCAGAGGAGGCAGGCUUCGGGGUCGCGAUAGCGCCAACGUCCUCAACCUCCAAUGCAUCCCACCACAUGAUGAUGCCUGAAGAGCCUUGGUUUUUUG [U59G G61U] | -0.648
GACCAAUCUGCCCUCAGAGCUCGAGAACAUCUUCGGAUGCAGAGGAGGCAGGCUUCGGGAGCGCGAUAGCGCCAACGUCCUCAAACUCCAAUGCAUCCCACCACAUGAUGAUGCCUGAAGAGCCUUGGUUUUUUG [U59G G60A C85A] | -2.54
GACCAAUCUGCCCUCAGAGCUCGAGAACAUCUUCGGAUGCAGAGGAGGCAGGCUUCGGUAGCGCGAUAGCGCCAACGUCCUCAAUCUCCAAUGCAUCCCACCACAGGAUGAUGCCUGAAGAGCCUUGGUUUUUUG [G60A C85U U106G] | -3.68
GACCAAUCUGCCCUCAGAGCUCGAGAACAUCUUCGGAUGCAGAGGAGGCAGGCUUCGGUAGCGCGAUAGCGCCAACGUCCUCAACCUCCCAUGCAUCCCACCACAUGAUGAUGCCUGAAGAGUCUUGGUUUUUUG [G60A A90C C123U] | 0.00477
